Assay results reported in publication PMC2958812, “Evidence for a Xer/dif System for Chromosome Resolution in Archaea”.

Tests used:
XerA (Pab0255) [1] = target: T1, XerA (Pab0255) (Pyrococcus abyssi, UniProt Q9V1P5 1-286); assay: EMSA; 20 C; 0.5 ug poly(dIdC); EMSA: 0.5 uM labeled DNA, 50 mM Tris pH 7.5, 30 mM NaCl, 0.5 ug poly(dIdC).poly(dIdC), 20 ul, 30 min at 20 or 65 C; native PAGE in TGE at 4 C; conditions: protein: recombinant; tags: N-terminal His6 (MHHHHHH, from forward primer); label: 5'-32P on top strand; blunt
T1 sequence: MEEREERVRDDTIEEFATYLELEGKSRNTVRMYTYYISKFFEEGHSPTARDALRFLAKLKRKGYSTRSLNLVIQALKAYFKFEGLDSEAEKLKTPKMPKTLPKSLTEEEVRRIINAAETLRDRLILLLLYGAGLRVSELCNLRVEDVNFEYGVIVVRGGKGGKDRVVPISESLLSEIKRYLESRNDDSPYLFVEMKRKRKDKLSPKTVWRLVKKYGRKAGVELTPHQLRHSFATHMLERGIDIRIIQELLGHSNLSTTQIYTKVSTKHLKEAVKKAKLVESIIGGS

XerA (Pab0255) [2] = target: T1, XerA (Pab0255); assay: EMSA; 65 C; 0.5 ug poly(dIdC); EMSA: 0.5 uM labeled DNA, 50 mM Tris pH 7.5, 30 mM NaCl, 0.5 ug poly(dIdC).poly(dIdC), 20 ul, 30 min at 20 or 65 C; native PAGE in TGE at 4 C; conditions: protein: recombinant; tags: N-terminal His6 (MHHHHHH, from forward primer); label: 5'-32P on top strand; blunt

B1: dif-Pab (dsDNA)
DNA 1: GTTAACTATATTGGATATAATCGGCCTTATATCTAAAGTGTTG
DNA 2: CAACACTTTAGATATAAGGCCGATTATATCCAATATAGTTAAC
binding signal (XerA (Pab0255) [1]): 4 fold complex formation vs attP
binding signal (XerA (Pab0255) [2]): 8 fold complex formation vs attP

B2: attP (SSV1 minimal) (dsDNA)
DNA 1: GTTAACTATCTTTTCCGCCTCCGGAGCCGGAGGTCCCGTGTTG
DNA 2: CAACACGGGACCTCCGGCTCCGGAGGCGGAAAAGATAGTTAAC
binding signal (XerA (Pab0255) [1]): 0.25 complex formation relative to dif-Pab (4 fold less)
binding signal (XerA (Pab0255) [2]): 0.125 complex formation relative to dif-Pab (8 fold less)
